Results taken from PMC5963871, “Regulation and function of H3K36 di-methylation by the trithorax-group protein complex AMC” (Development (Cambridge, England), 2018).
Each block holds one binder with its values, some of them ahead of it.

Experiments:
[1] = target: human ASH1L_(XL-SET) (ASH1L_(2035-2288)) (human, UniProt Q9NR48 2035-2288); test: cell-based or functional assay
[2] = target: T1, Drosophila Ash1_(XL-SET) (Ash1_(1275-1522)) (Drosophila, UniProt Q9VW15 1275-1522); test: cell-based or functional assay
T1 sequence (looked up): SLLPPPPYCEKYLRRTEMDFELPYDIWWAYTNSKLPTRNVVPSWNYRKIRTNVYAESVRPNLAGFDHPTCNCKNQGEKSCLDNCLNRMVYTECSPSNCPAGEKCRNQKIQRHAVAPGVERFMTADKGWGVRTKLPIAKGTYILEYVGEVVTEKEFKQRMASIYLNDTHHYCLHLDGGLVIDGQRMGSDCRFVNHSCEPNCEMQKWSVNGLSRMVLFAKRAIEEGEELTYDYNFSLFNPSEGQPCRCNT

HMTase activity on recombinant oligonucleosome arrays (methyl-3H incorporation into histone H3, fluorography): ASH1L_(XL-SET):MRG15MRG complex compared with ASH1L_(XL-SET) alone [1]: ~7 fold
B1: MRG domain of human MRG15 (MRG15_(151-362), MRG15MRG) (domain or fragment)
chain: KNKQKTPGNGDGGSTSETPQPPRKKRARVDPTVENEETFMNRVEVKVKIPEELKPWLVDDWDLITRQKQLFYLPAKKNVDSILEDYANYKKSRGNTDNKEYAVNEVVAGIKEYFNVMLGTQLLYKFERPQYAEILADHPDAPMSQVYGAPHLLRLFVRIGAMLAYTPLDEKSLALLLNYLHDFLKYLAKNSATLFSASDYEVAPPEYHRKAV

HMTase activity on recombinant oligonucleosome arrays (methyl-3H incorporation into histone H3, fluorography): Ash1_(XL-SET):MRG15 complex compared with Ash1_(XL-SET) alone [2]: ~30 fold
B2: Drosophila full-length MRG15 (E. coli) (natural protein, UniProt Q9Y0I1 1-424, looked up)
chain: MGEVKPAKVENYSTGTDANTLFVDGERVLCFHGPLIYEAKVLKTKPDATPVEYYIHYAGWSKNWDEWVPENRVLKYNDDNVKRRQELARQCGERSKKDNKKGSAKAKKMEQMRNESRASTPSKDSNTSQSTASSTPTTSAGPGSKSEAGSTGTTTTNSTANSTTSRAHRKSTQSTPSTARPGTPSDKKEDPAAAETTEEEGPVAPKKKRMSEQRPSLTGSDVAEKPLPPTTTPSTPTTEPAPCVESEEAYAAKVEVKIKIPDELKHYLTDDWYAVVREHKLLELPAKVTVQQISEQYLAHKKSVKSTSASKEVAINDVLDGIVEYFNVMLGSQLLYKFERTQYADVMQKHPDTPLSELYGSFHLLRLFVRLGSMLSYSALDQQSMQNLLTHVQDFLKFLVKNSSIFFSMSNFINVDPEYVRNAQ
